Data on five molecules can be found in US20050058645A1 (ZENYTH OPERATIONS, published 2005).

First the molecules themselves.
B1: mouse IL-13 (ligand, UniProt P20109 21-131, looked up)
chain: GPVPRSVSLPLTLKELIEELSNITQDQTPLCNGSMVWSVDLAAGGFCVALDSLTNISNCNAIYRTQRILHGLCNRKAPTTVSSLPDTKIEVAHFITKLLSYTKQLFRHGPF
B2: CDR-grafted 1D9 Fab (Fab, V domains shown)
VH: EVQLVESGGGLVQPGGSLRLSCAASGFTFSGYGMSWVRQAPGKGLEWVATISGLGGYTYYPDSVKGRFTISRDNSKNTLYLQMNSLRAEDTAVYYCARRFYGDYVGAMDYWGQGTLVTVSS
VL: DIQMTQSPSSLSASVGDRVTITCRSSKSLLHSNGITYLYWYQQKPGKAPKLLIYQMSNLASGVPSRFSGSGSGTDFTLTISSLQPEDFATYYCAQNLELPFTFGQGTKVEIKR
B3: chimeric mouse IL-13Rα1-Fc (Fc fusion, UniProt O09030 26-340, looked up)
chain: ATEVQPPVTNLSVSVENLCTIIWTWSPPEGASPNCTLRYFSHFDDQQDKKIAPETHRKEELPLDEKICLQVGSQCSANESEKPSPLVKKCISPPEGDPESAVTELKCIWHNLSYMKCSWLPGRNTSPDTHYTLYYWYSSLEKSRQCENIYREGQHIACSFKLTKVEPSFEHQNVQIMVKDNAGKIRPSCKIVSLTSYVKPDPPHIKHLLLKNGALLVQWKNPQNFRSRCLTYEVEVNNTQTDRHNILEVEEDKCQNSESDRNMEGTSCFQLPGVLADAVYTVRVRVKTNKLCFDDNKLWSDWSEAQSIGKEQNST
notes: extracellular domain; Bought (R & D Systems); Preformed disulphide-bonded dimer; also called mIL-13Rα1-Fc; chimeric mouse receptor; not shown: Fc portion of human IgG
B4: soluble hIL-13Rα1 (ECD) (receptor)
chain: GGGGAAPTETQPPVTNLSVSVENLCTVIWTWNPPEGASSNCSLWYFSHFGDKQDKKIAPETRRSIEVPLNERICLQVGSQCSTNESEKPSILVEKCISPPEGDPESAVTELQCIWHNLSYMKCSWLPGRNTSPDTNYTLYYWHRSLEKIHQCENIFREGQYFGCSFDLTKVKDSSFEQHSVQIMVKDNAGKIKPSFNIVPLTSRVKPDPPHIKNLSFHNDDLYVQWENPQNFISRCLFYEVEVNNSQTETHNVFYVQEAKCENPEFERNVENTSCFMVPGVLPDTLNTVRIRVKTNKLCYEDDKLWSNWSQEMSIGKKRNST
notes: also called immobilized hIL-13Rα1 (ECD)
B5: chimeric human IL-13Rα1-Fc (Fc fusion)
chain: B4 chain
notes: Bought (R & D Systems); Extracellular domain of IL-13Rα1 fused to Fc of human IgG; Expressed as preformed disulphide-bonded dimer; also called hIL-13Rα1-Fc; chimeric human receptor; not shown: Fc portion of human IgG

Assay [1] addresses B5. Put plainly: Biosensor, immobilized mouse IL-13, chimeric receptor in solution. An excerpt: (§1) A qualitative comparison of sensorgrams obtained in this study to data obtained previously with monomeric receptor protein, indicated a substantial improvement in binding kinetics. This improvement is attributed to a much slower off-rate for the dimeric form, compared with the monomeric form, of the receptor. To further quantify this interaction a complete dose-response analysis using both human and mouse chimeric receptor proteins and immobilized human and mouse IL-13 was undertaken.

For assay [2], the target named is B3. The description is as above.
Description: as §1

For the assay “soluble hIL-13Rα1 (ECD)”, the target named is B4. The assay can be described thus: competition ELISA (phage displayed Fab) and Biacore competition (soluble Fab). The method, then:
(§2) FIGS. 11A and 11B are graphical representations of binding affinities of the chimeric and CDR-grafted Fab fragment. […] (B) Biosensor competition assay of soluble 1D9 chimeric or CDR-grafted Fab binding to immobilized hIL-13Rα1 (ECD) competed by soluble hIL-13Rα1 (ECD). Fold-difference in affinity is calculated from (IC₅₀/IC₅₀).
The CDR-grafted Fab has similar affinity for IL-13Rα1 as the reference murine-human chimeric Fab.

Assay [3] addresses B5. Put plainly: ELISA: phage displayed Fab on plate bound hIL-13Rα1-Fc (ECD) (2.5 µg/ml), competed by soluble hIL-13Rα1 (ECD).
The target of the assay “mouse IL-13” is B1. The assay can be described thus: Biosensor, immobilized IL-13.
A further assay deals with human IL-13 (human, UniProt P35225 35-146, limits assumed). The assay can be described thus: Biosensor, immobilized IL-13.
Chain of human IL-13 (P35225 35-146 limits assumed): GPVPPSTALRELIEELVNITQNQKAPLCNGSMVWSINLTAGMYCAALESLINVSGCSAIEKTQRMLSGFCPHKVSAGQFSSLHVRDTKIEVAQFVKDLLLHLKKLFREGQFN
Assay [4] has as its target B2. The assay can be described thus: Competition ELISA: phage displayed Fabs on plate bound hIL-13Rα1-Fc (ECD), competed by soluble hIL-13Rα1 (ECD); ratio of the IC50 of the CDR-graft to that of the chimera.
Assay [5] has as its target B2. Put plainly: Biosensor competition assay: soluble Fabs on immobilized hIL-13Rα1 (ECD), competed by soluble hIL-13Rα1 (ECD); ratio of the IC50 of the CDR-graft to that of the chimera. The method, then:
as §2

Assay [6] has as its target B2. The assay can be described thus: Competition ELISA: phage displayed CDR-grafted 1D9 Fab on plate bound hIL-13Rα1-Fc (ECD) (2.5 µg/ml), competed by titrated soluble hIL-13Rα1 (ECD).
Assay [7] deals with T1, mouse-human chimeric 1D9 Fab (human, UniProt P01857 1-103 = IgG part; P01834 1-107, limits assumed). Put plainly: Biosensor competition assay: soluble chimeric 1D9 Fab on immobilized hIL-13Rα1 (ECD), competed by titrated soluble hIL-13Rα1 (ECD). How it is done: as §2
T1 sequence (VH, as listed by the source limits assumed, chain 1 of 2): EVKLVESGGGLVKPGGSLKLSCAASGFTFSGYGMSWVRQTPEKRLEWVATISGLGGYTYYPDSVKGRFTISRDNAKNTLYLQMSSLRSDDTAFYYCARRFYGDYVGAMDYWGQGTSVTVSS
T1 sequence (VL, as listed by the source limits assumed, chain 2 of 2): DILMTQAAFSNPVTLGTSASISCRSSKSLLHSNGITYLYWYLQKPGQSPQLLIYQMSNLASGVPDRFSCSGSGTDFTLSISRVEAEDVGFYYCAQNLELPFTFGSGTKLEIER
Assay [8] addresses B2. The assay can be described thus: Biosensor competition assay: soluble CDR-grafted 1D9 Fab on immobilized hIL-13Rα1 (ECD), competed by titrated soluble hIL-13Rα1 (ECD). How it is done:
as §2

In assay [9] the target is T1, mouse-human chimeric 1D9 Fab. Put plainly: Competition ELISA: phage displayed chimeric 1D9 Fab on plate bound hIL-13Rα1-Fc (ECD) (2.5 µg/ml), competed by titrated soluble hIL-13Rα1 (ECD).
Assay [10] has as its target T2, IL-13 (species not stated).
T2 construct: the 100-fold comparison
The assay can be described thus: Biosensor, immobilized IL-13.

As for B1, the Kd in assay [1] was determined as 15.1 nM; in assay [2] it was 0.536 nM.

For the molecule B2, the binding result (in the assay with soluble hIL-13Rα1 (ECD); in assay [3]) was “binds” in each case.

For the molecule B3, the “fold greater affinity compared with the chimeric human receptor” value with mouse IL-13 and with human IL-13 was approximately 10 fold each time.

For the molecule B4, the results for the “fold difference in affinity (CDR-graft against Chimera, IC50/IC50)” value with CDR-grafted 1D9 Fab [4] and with CDR-grafted 1D9 Fab [5] were approximately 3 fold and approximately 1.5 fold, respectively. Further, the 50% inhibitory concentration (IC50) in the assay with CDR-grafted 1D9 Fab [6] was determined as 0.127 µg/mL; in assay [7], 6.66 nM; in the assay with CDR-grafted 1D9 Fab [8], 9.61 nM; in assay [9], 0.045 µg/mL.

Take B5: in assay [10], the “fold increase in affinity compared with the monomeric form of the receptor” value was 100 fold.
